In PMC5958903:

Target: brain-derived neurotrophic factor
Experiment: native gel or EMSA

stoichiometry N (TrkB per BDNF dimer): 1
Substance: soluble, recombinant extracellular domain of tropomyosin receptor kinase B (from UniProt Q16620 32-430)
